Test results taken from the nanobody polyreactivity screen of Harvey et al. (2022).

Experiment: yeast display, Sf9 membrane polyspecificity reagent, FACS + sequencing; frameworks hold sequencing errors
Procedure, shortened: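 Galactose-induced (36–48 hours) yeast carrying a synthetic nanobody display library were exposed to 10% biotinylated, detergent-solubilized Sf9 membrane reagent at 4 °C for 1 hour. FACS followed streptavidin microbead enrichment, using low and high (top ~1%) gates for expression (anti-HA) and reagent binding (streptavidin). Colony PCR, MiSeq 2 × 250 sequencing and CDR-length filtering followed. Labels for polyreactivity reflect the gate of origin.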

Sequence	polyreactivity (PSR sort gate)
QVQLVESGVGIVQAGRSHRVSCAASGSTYNPYAMGWYRQAPGKESELVARIRGSGGSTYYADSVKVRFTISRDNAKNPVFLHMNSQKPEDTAVYYCATDDYYLSRYRLVGYYSWGQGTQVTVSS	high polyreactivity
QVQLVESGGGLVQAGGSLRLSCAASGSTFPYYAMGWYRQAPWKERELVAAIRRRTGSTHYADSVKGRFSISRDNAMNTVYLQMNSLKQEDTAFYYCAADVSYRGNGHGYWGQGTQVNVSS	low polyreactivity
QVQLVESGGGLVQAGGSLRLSCAASGSTIYTYVMGWYRPAPGKERELVAAISWSGSSTYYADSVKGRFTISRDNAKNTVYLQMNSLKPEDTAVYYCNAQYRRGWWGVEYGYWGQGTQVTVSS	low polyreactivity
QVQLVESGGGLVQAGGSLRLSCAASGRTLRKYAMGWYRQAPGKERELVAGFTGSAGSTYYADSVKGRFTISRDNAKNTVYLQMNSLKPEDTAVYYCAKSGLRYGFDYWGQGTQVTVSS	high polyreactivity
QVQLVESGGGLVQAGGSLRLSCAASGSIFHTYLMGWYRQAPGKERELVASSTRSGGSTYYADSVKGRFTISRDNAKNTVYLQMNSLKPEDTAVYYCAATYRTANHRYYYWGQGTQVTVSS	high polyreactivity
HVQLVESGGGLVQAGGSLRLSCAASGSTFTRYVMGWYRQAPGKERELVAAISSGVSTYYADSVKGRFTISRDNAKNSVYLQMNSLKPEDTAVYYCDANRYRAREYKYWGQGTQVTVSS	high polyreactivity
QVQLVESGGGLVQAGGSLRLSCAAYGRIFWLYAMGWYRQAPGKERELVAVISWSGGTTYYADSVKGRFTISRDNAKNTVYLQMNSLKPEVTAVYYCAKQGWTSYDYWGQGTQVTVSS	low polyreactivity
QVQLVESGGGLVQAGGSLRLSCAASGRTFKTYSMGWYRQAPGKERELVASISGSGSSTYYADSVKGRFTISRDNAKNSVYLQMKSRKPEDTAVYYCNAARSQGYEYATYGYWGQGTQVTVSS	low polyreactivity
QVQLVESGGGLVQAGGSLRLSCAASGSIFLHNAMGWYRQAPGKERVLVAVITSRGGSTYYADSVKGRFTISRDNAKNPVYLQMNSLKPEDTAVYYCAAPAYHKRTSRGDYWGQGTQVTVSS	low polyreactivity
QVQLVESGGVLVQAGGSLRLSCAASGFTFYRYDMGWYRQAPVKERELVAAITWSGGSTYYADSLKGRFTISRDNAKNTVYLQMNSLKPEDTAVYDCAAENYDGGFEYWGLGTQVTVSS	low polyreactivity
QVQLVESGGGLVQAGGSLRLSCAASGFTFRYYAMGWYRQAPGKERELVAAITSRGGSTYYADSVKGRFTISRDNAKNTVYLQMNSLKPEDTAVYYCAAETWRPSPYSRVSTYDYWGQGTQVTVSS	high polyreactivity
QVQLVESGGGLVQAGGSLRLSCAASGSIFNAYVMGWYRQAPGKERELVAAISRSGGRTYYADSVKGRFTISRDNATNTVYLQMNCLKPEDTAVYYCAAGYRYNYWGQGSQVTVSS	high polyreactivity
QVQLVESGGGLDQAGGSLRLSCAASGGTFGLYAMGWYRQAPGKERELVAAITWSDSSTYYADSVKGRFTISRDNAKNTVYFQMNSLKPEDTAVYYCNAVRSTSYGSYNYWGQGTQVTVSS	low polyreactivity
QVQLVESGGGLVQAGGSLRLSCAASGSIFVWNAMGWYRQAPGKERELVAAITNICGRTYYADSVKGRFTISRDNAKNTVYLQMNSLKPEDTAVYYCNTDRVSRLGWSTTSDSWGQGTQVTVSS	high polyreactivity
QVQLVESGGGLVQAGGSLRFSCAASGFTFYPNTMGWYRQAPGTERELVAAISSSGGRTYYADSVKGRFTISRDNAKNTVYLQMNSLKPEDNAVYYCNAAKWLTSGGLDYWGQGTQVTVSS	high polyreactivity
QVQLVESGGGLVQAGGSLRLSCAASGRNLLGNAMGGYRQAPGKEREFVAAISYRGGSTYYADSVKGRFTISRDNEKNTVYLQMNSLKPVDNAVPYCAASSLKYSRFDYGGQGTQVTVSS	low polyreactivity
QVQLVESGGGLVQAGGSLRLSCAPSGRIVYYYAMGWYRHAPGKERELVASITFSGGRTFYADSVKGRFTITRDYAKNTVYLQMNSVTPEDTAVYYGAAVRCGRRSGGLVAEYDYWGQGTQVSVSS	high polyreactivity
QVQLVESGGGLVQAGGSLLLSCAASGSIYSYYAMGWYRQAPGKERELVAAISQSGGTTYYADSVKGRFTISRDNAKNTVYLQMNSLKPEDTAVYYCAARATSSFDTQYYYWGQGTQVTVSS	low polyreactivity
QVQLVESGGGLVQAGGSLRLSCAASGSIFNYYGMGWYRQAPGKERELVAAISVRGGRTYYADSVKGRFTISRDNAKNTVYLQMNSLKPEDTAVYYCAADGGYSLGYYDDELDYWGQGTQVTVSS	low polyreactivity
QVQLVESGGGLVQAGGSLRLSCAASGRTIGVYAMGWYRQAPGKERELVAAISWSGGTTYYADSVKGRFTISRDNAKYTVYLQMNSLKPEDTAVYYCAADSYTEVDYWGQGTQVTVSS	low polyreactivity
QVQIVESGGGLVQAGGSLRLSCAASGSTFNYNAMGWYRQAPGKERELVAAITFTGGSTYADSVKGRFTISRDNAKNTVYLQMNSLKPEDTAVYYCAATIQGHDYLGTGYDYWGQGTQVTVSS	low polyreactivity
QVQLVESGGGLVQAGGSLRLSCAASGSIFYYYAMGWDRQAPGKERELVAGITGSGGRTYYADSVKGRFTISRDNAKNTVYLQMNSLKPEDTAVYYCAATRRDSTGSLYYYWGQGTQVTVSS	high polyreactivity

Sequence	polyreactivity (PSR sort gate)
QVQLVESGGGLVQAGGSLRLTCAASGIIFRGYAMGWYRQPPGKERELVAGITSGVRTYYADSVKGRFTISRDNAKNTVYLQMTSLKPEDTAVYYSNADAYGDDWKIYDYWGQGTQVTVSS	low polyreactivity
QVQLVESGGGLVQAGGSLRLSCAASGSIFRYNAMGWYRQAPGKERELVAAIDWSGGTYYADSVKGRFTISRDNAKNTVYLQMNSLKPEDTAVYYCNARGSTYSSYWGYDYWGQGTQVTVSS	low polyreactivity
QVQLVESGGGLVQAGGSLRLSCAASGITLQNNAMGWYRQAPGKERELVAAITGSGGSTYYADSVKGRFTISRDNAKNTVYLQMNSLKPEDTAVYYCATDGIFHLGVYTPYDYWGQGTQVTVSS	low polyreactivity
QVQLVESGGGLVQAGGSLRLSCAASGRTFRLYAMGWYRQAPGKERELVAAIRSGGSTNYADSVKGRFTISRDNAKNTVYLQMNSLKPEDTAVYYCAVDGYFFQGPYYYWGQGTQVTVSS	low polyreactivity
QVQLVESGGGLVQAGGSLRLSCAASGSTFFHYAMGWYRQAPGKERELVAAIDSNGGSTYYADSVKGRFTISRDNAKNTVYLQMNSLKPEDTAVYYCAADDLAEFEYDYWGQGTQVTVSS	low polyreactivity
QVQLVESGGGLVQAGGSLRLSCAASGSIFAYNAMGWYRQAPGKEREFVASISSNGDSTFYADSVKGRFTISRDNAKNTVYLQMNSLKPEDTAVYYCAADVIAWDGYLWQRYDYWGQGTQVTVSS	low polyreactivity
QVQLVESGGGLVQAGGSLRLSCAASGLIFGNNAMGWYRQAPGKERELVAGIDWSGGSTYYADSVKGRFTISRDNAKNTVDLQMNSLKPEDTAVYYCNAALYVSGHYPNDYWGQGTQVTVSS	low polyreactivity
QVQLVESGGGLVQAGGSLRLSCAASGLTFEYYAMGWYRQAPGKERELVAAISRRGSTYYADSVKGRFTISRDNAKNTVYLQMNSLKPEDTAVYYCNAVYYWYKGDYWGQGTQVTVSS	high polyreactivity
QVQLVESGGGLVQAGGSLRLSCAASGSIFKGYAMGRYIQAPGKERELVAAISSSGGSTYYADSVKGRFTISRDNAKNTVYLQMNSLKPEDTAVYYCNTDRYYTYDYLGQGTQVTVSS	low polyreactivity
QVQLQESGGGLVQAGGSLRLICAASGTIFRFRYMGWHRQAPGKERELVAGINGGTTTYYADSVIGRFTISRDNAKNTVYVQMNSLKPDDTAVYNCAAGASRLTYYDYWGHGTQVTVSS	low polyreactivity
QVQLVESGGGLVQAGGSLRLSCAASGRIFKNYAMGWYRQAPGKERELVAAITWSVGSTYYADSVKGRFTISRDNAKNTVYLQMNSLKPEDTAVYYCAARRSDFRGAKDGYYYWGQGTQVTVSS	low polyreactivity
QVQLVESGGGLVQAGGSLRLSCAASGRIFYRYGMGWYRQAPGKERELVASITRGGSTYYADSVKGRFTISRDNAKNTVYLQMNSLKPEDTAVYYCNAQTRYRYQYGYLGGTGYNYWGQGTQVTVSS	low polyreactivity
QVQLVESGGGLVQAGGSLRLSCAASGRIFVVYAMGGYRQAPGKERDLVASISRGGRTYYADSVKGRFTISRDNAKNTVYLQMNSLKPEDTAVYYCAVVVYLKNRDLFDYWGQGTQVTVSS	low polyreactivity
QVQLVESGGGLVQAGGSLRLSCAASGFTFYTNAMGWYRQAPGKEREFVAAISWSGTGTYYADSVKGRFTISRDNAKNTVYLQMNSLKPEDTAVYYCAARDRWRGGRKFDYWGQGTQVTVSS	high polyreactivity
QVQLVESGRGLVQAGGSLRLSCAASGRIFSTYAMGWYRQAPGKERELVAAISWRGSSTYYADSVKGRFTISRDNAKNTVYLQMNSLKPEDPAVYYCNADKANRYDWGQGTQVTVSS	high polyreactivity
QVQLVESGGGLVQAGGSLRLSCAASGRSFVLYTMGWSRQAPGKEREWVAAISGSGGRTYYADSVKGRFTISRDHAKNTVNLQMNSLKPEDTAVYYCAAYGQGLPLYGYWGPGTQVTVSS	high polyreactivity
QVQLVESGGGLVQAGGSLRLSCAASGRTFRPYAMGWYRQAPGKERELVAAISSRGSSTYYADSVKGRFTISRDNAKNNVYLQMNSLKPEDTAVYYCAARSYWGGLRYDYWGQGTQVTVSS	high polyreactivity
QVQLVESGGGLVQAGGSLRLRCASSGRNFVPYAMGGDRQAPGTEREFVAAISRSGGSTHYADSVKGRFTISRDNAKNTVYLQMNSLKPEDTAVYYCAADYDLWLWSGYYWGQGTQVTVSS	high polyreactivity
QVQLVESGGGLVQAGGSLRLSCAASGSIFGVYAMGWYRQAPGKERELVAAINSGGTTYADSVKGRFTISRDNAKNTVYLQMNSLKPEDTAVYYCNADRWGPEDPYRVRDRFDYWGQGTQVTVSS	low polyreactivity
QVQLVESGGGLVQAGGSLRLICAASGRTFSGNTMGWYRQAPGKERELVAAITGRGGSTYYADSVKGRFTISRDNAKNTVYLQMNSLKPEDTAVYYCAALRYTFAGRFDYWGHGTQVTVSS	high polyreactivity
QVQLVESGGGLVQAGGSLRLSCAASGYIFTEYAMGWYRQAPGKERELVAAIDWSGGSTYYADSVKGRFTISRDNAKNTVYLQMNSLKPEDTAVYYCAKYYYTSIVGYDSWGQGTQVTVSS	low polyreactivity
